The record followed here is paper doi:10.1101/626572.

The series concerns the target Concanavalin A (Con A) (UniProt P02866;P02866 164-281;30-148). The series is described as follows: particle-based flow cytometry.

Concanavalin A (Con A), sequence (P02866 164-281, chain 1 of 2): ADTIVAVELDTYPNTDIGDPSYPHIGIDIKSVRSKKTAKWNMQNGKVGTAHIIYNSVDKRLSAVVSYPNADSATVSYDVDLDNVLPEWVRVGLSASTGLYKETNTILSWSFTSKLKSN
Concanavalin A (Con A), sequence (P02866 30-148, chain 2 of 2): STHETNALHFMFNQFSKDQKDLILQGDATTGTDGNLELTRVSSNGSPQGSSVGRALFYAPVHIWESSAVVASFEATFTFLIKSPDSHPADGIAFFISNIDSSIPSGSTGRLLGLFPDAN

B1: ConA-3-1n (ssDNA)
DNA: GATCCCAGTCCGAAGTAATCGTTGCATCTGCACGACTGGTGAGCTTGAGTGGCAGAAGAACTTGTGCAAACGGCTATAGG
Consider B1, for which the binding result is reported as “no binding”.
